Measured values reported in patent US20110262436A1, “TREATMENT METHOD” (Genentech, Inc., priority 2008, published 2011).

Key:
[1] = PK study, single IV bolus dose in Sprague-Dawley rats; assay type: in vivo
Description: (§1) PK studies. PK studies were conducted in mice, rats, and cynomolgus monkeys.
Pharmacokinetic Assays for MetMAb in Mouse Serum and Rat Serum. […] A direct ELISA assay was developed for quantification of MetMAb in mouse serum and Sprague-Dawley rat serum. Plates were coated with human c-Met-Fc fusion protein to which samples, standards, and dosing solutions were added. Goat anti-human F(Ab′)2 horseradish peroxidase (HRP) was used for detection. Tetrapethyl benzidine (TMB) peroxidase substrate was added for signal development. The substrate reaction was stopped with phosphoric acid. The plates were read at an absorbance of 450 nm. […] The lower limit of quantitation in the assay was 0.47 ng/mL and the upper limit of quantification was 30 ng/mL. The minimum dilution for nude mouse serum samples was 1/10, resulting in a minimum quantifiable concentration of 4.7 ng/mL, with an indefinite upper limit. The minimum dilution for rat serum samples was 1/50, resulting in a minimum quantifiable concentration of 23.5 ng/mL, with an indefinite upper limit.
(§2) Mouse, Rat, and Cynomolgus Monkey PK data analysis. […] PK parameters were estimated using WinNonlin Enterprise Version 5.0.1 (Pharsight Corp., Mountain View, Calif.). The nominal dose administered for each group was used for modeling. Since a single concentration-time profile for mice was determined for each group, one estimate of each PK parameter was obtained and is reported, along with the standard error (SE) of the fit of each PK parameter. For rats and monkeys, PK parameters are reported as mean (+/−SD).
(§3) For IV administrations, a two-compartment elimination model with IV bolus input and first-order elimination was used to describe the observed data (WinNonlin Model 7). Concentrations were weighted using iterative reweighting (1/ŷ^2) and the Nelder-Mead minimization algorithm. The following equation was used to calculate concentration over time in Model 7: […]

[2] = PK study, single IV dose in cynomolgus monkeys; assay type: in vivo
Description: as §1
Pharmacokinetic Assay for MetMAb in Cynomolgus Monkey Serum. A direct ELISA was developed to quantitate MetMAb in cynomolgus monkey serum. Plates were coated with a His-tagged c-met extracellular domain fragment, and diluted samples, standards, and controls were added to the coated plates. F(Ab′)2 fragmented, goat anti-human IgG Fc antibodies conjugated to HRP were added for detection. TMB peroxidase was stopped with […]. The plates were read at an absorbance of 450 nm and 620/630 nm.
The lower limit of quantification of the assay was 1.0 ng/ml and the upper limit of quantification was 32.0 ng/ml. The minimum dilution for neat cynomolgus monkey serum samples was 1/50, resulting in a minimum quantifiable concentration of 50 ng/ml, with an indefinite upper limit.
as §2, §3

c-met [3] = experiment: Binding to c-met in cynomolgus monkeys
c-met [4] = biological target: c-met (Mus musculus, UniProt P16056); experiment: Binding to c-met in mice
c-met (Mus musculus, UniProt P16056), sequence (P16056 25-1379): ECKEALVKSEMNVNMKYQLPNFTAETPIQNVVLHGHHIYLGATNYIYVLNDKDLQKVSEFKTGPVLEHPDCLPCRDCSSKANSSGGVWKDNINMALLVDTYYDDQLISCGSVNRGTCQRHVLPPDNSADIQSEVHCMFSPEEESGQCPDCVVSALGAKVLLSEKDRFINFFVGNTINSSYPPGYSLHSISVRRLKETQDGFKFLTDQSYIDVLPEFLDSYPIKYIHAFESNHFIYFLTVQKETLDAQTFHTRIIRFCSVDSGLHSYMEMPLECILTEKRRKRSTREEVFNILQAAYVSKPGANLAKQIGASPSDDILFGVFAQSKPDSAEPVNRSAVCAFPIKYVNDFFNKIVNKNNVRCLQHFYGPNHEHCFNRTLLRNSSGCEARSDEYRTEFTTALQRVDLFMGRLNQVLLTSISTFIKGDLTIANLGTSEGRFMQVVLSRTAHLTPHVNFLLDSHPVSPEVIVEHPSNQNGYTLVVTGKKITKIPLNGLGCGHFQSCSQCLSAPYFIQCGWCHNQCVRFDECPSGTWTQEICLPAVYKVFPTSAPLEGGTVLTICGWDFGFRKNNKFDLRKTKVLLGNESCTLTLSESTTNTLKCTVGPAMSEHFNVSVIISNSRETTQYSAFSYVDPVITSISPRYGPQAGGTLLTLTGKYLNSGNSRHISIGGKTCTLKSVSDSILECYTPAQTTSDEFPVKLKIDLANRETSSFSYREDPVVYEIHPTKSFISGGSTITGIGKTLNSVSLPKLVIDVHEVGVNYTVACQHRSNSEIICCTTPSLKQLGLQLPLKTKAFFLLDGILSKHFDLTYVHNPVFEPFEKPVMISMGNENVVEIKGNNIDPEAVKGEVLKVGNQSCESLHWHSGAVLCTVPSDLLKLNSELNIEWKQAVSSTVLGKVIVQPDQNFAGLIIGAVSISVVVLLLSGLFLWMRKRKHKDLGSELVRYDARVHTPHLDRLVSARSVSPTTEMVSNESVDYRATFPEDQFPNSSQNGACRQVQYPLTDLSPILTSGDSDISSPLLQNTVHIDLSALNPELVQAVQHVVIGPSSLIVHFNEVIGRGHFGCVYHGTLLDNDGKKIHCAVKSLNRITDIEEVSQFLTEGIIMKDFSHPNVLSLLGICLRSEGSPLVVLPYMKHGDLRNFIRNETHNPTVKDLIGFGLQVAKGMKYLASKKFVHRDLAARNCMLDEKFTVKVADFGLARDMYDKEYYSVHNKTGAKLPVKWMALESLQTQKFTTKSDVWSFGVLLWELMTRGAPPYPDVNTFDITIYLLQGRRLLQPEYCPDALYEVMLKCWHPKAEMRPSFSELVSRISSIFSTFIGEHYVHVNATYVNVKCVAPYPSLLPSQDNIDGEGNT

[5] = tested on: KP4 human pancreatic ductal cell carcinoma cells; experiment: Dose response study in KP4 xenograft mice; assay type: in vivo; details: from Day 21 effect vs. dose profile
Description: In a dose response study, female nude (nu/nu) mice (age 6-8 weeks) were inoculated subcutaneously (SC) with 5×10^6 KP4 human pancreatic ductal cell carcinoma cells.
(§4) In all cases, tumors were measured with calipers throughout the study.

[6] = tested on: KP4 human pancreatic ductal cell carcinoma cells; experiment: Dose fractionation study in KP4 xenograft mice; assay type: in vivo; details: total 2.5, 7.5 or 30 mg/kg as Q1W, Q2W or Q3W
Description: For example, a 30 mg/kg total dose was given as 10 mg/kg Q1W, 15 mg/kg Q2W, or 30 mg/kg Q3W.
as §4

[7] = Phase I dose-escalation study: safety and tolerability; assay type: in vivo, humans
Description: Study design. There are two stages to this study, a dose-escalation stage and an expansion stage.
Study treatment. […] Dose levels tested in Phase I were: 1 mg/kg, 4 mg/kg, 10 mg/kg, 20 mg/kg, and 30 mg/kg.

[8] = tested on: locally advanced or metastatic solid tumors; experiment: Phase I study: anti-tumor activity (RECIST); assay type: in vivo, humans
Description: The following activity outcome measures are assessed: objective response, defined as a complete or partial response confirmed≧4 weeks after initial documentation; duration of objective response; and progression-free survival. Objective response and disease progression will be determined using RECIST.
Patient selection criteria.

Substance: MetMAb: recombinant, humanized, monovalent (one-armed) monoclonal antibody directed against human c-met
- Terminal Half-Life ([1]; Sprague Dawley rat): 124 h
- V1 ([1]; Sprague Dawley rat): 0.0446 L/kg
- Vss ([1]; Sprague Dawley rat): 0.107 L/kg
- CL ([1]; Sprague Dawley rat (n = 6)): 18.8 mL/day/kg
- Terminal Half-Life ([2]; Cynomolgus monkey): 97.2 h
- V1 ([2]; Cynomolgus monkey): 0.0338 L/kg
- Vss ([2]; Cynomolgus monkey): 0.0703 L/kg
- CL ([2]; Cynomolgus monkey (n = 4), linear dose range): 13.4 mL/day/kg
- Binding to c-met (c-met [3]): binds to c-met
- Binding to c-met (c-met [4]): does not bind to c-met
- Median efficacious dose (representative) [5]: 7.5 mg/kg
- Minimal efficacious dose (representative) [5]: 2.5 mg/kg
- Efficacy at the same dose level with different dose regimens [6]: similar
- Abdominal pain, drug-related, Grade 1 or 2 (patients) ([7]; Total (n = 21)): 0
- Abdominal pain, drug-related, Grade 3 (patients) ([7]; Total (n = 21)): 1 (4.8%)
- Anorexia, drug-related, Grade 1 or 2 (patients) ([7]; Total (n = 21)): 2
- Anorexia, drug-related, Grade 3 (patients) ([7]; Total (n = 21)): 0
- Any adverse event, drug-related, Grade 3 (patients) ([7]; Total (n = 21)): 2 (9.5%)
- Diarrhoea, drug-related, Grade 1 or 2 (patients) ([7]; Total (n = 21)): 1
- Diarrhoea, drug-related, Grade 3 (patients) ([7]; Total (n = 21)): 0
- Dysgeusia, drug-related, Grade 1 or 2 (patients) ([7]; Total (n = 21)): 1
- Dysgeusia, drug-related, Grade 3 (patients) ([7]; Total (n = 21)): 0
- Fatigue, drug-related, Grade 1 or 2 (patients) ([7]; Total (n = 21)): 7
- Fatigue, drug-related, Grade 3 (patients) ([7]; Total (n = 21)): 0
- Flushing, drug-related, Grade 1 or 2 (patients) ([7]; Total (n = 21)): 1
- Flushing, drug-related, Grade 3 (patients) ([7]; Total (n = 21)): 0
- Gastroesophageal reflux disease (GERD), drug-related, Grade 1 or 2 (patients) ([7]; Total (n = 21)): 1
- Gastroesophageal reflux disease (GERD), drug-related, Grade 3 (patients) ([7]; Total (n = 21)): 0
- Hypoalbuminaemia, drug-related, Grade 1 or 2 (patients) ([7]; Total (n = 21)): 2
- Hypoalbuminaemia, drug-related, Grade 3 (patients) ([7]; Total (n = 21)): 0
- Muscle spasms, drug-related, Grade 1 or 2 (patients) ([7]; Total (n = 21)): 1
- Muscle spasms, drug-related, Grade 3 (patients) ([7]; Total (n = 21)): 0
- Mydriasis, drug-related, Grade 1 or 2 (patients) ([7]; Total (n = 21)): 1
- Mydriasis, drug-related, Grade 3 (patients) ([7]; Total (n = 21)): 0
- Nausea, drug-related, Grade 1 or 2 (patients) ([7]; Total (n = 21)): 3
- Nausea, drug-related, Grade 3 (patients) ([7]; Total (n = 21)): 0
- Oedema peripheral, drug-related, Grade 1 or 2 (patients) ([7]; Total (n = 21)): 2
- Oedema peripheral, drug-related, Grade 3 (patients) ([7]; Total (n = 21)): 0
- Oral candidiasis, drug-related, Grade 1 or 2 (patients) ([7]; Total (n = 21)): 1
- Oral candidiasis, drug-related, Grade 3 (patients) ([7]; Total (n = 21)): 0
- Paraesthesia oral, drug-related, Grade 1 or 2 (patients) ([7]; Total (n = 21)): 1
- Paraesthesia oral, drug-related, Grade 3 (patients) ([7]; Total (n = 21)): 0
- Pyrexia, drug-related, Grade 1 or 2 (patients) ([7]; Total (n = 21)): 0
- Rash, drug-related, Grade 1 or 2 (patients) ([7]; Total (n = 21)): 1
- Rash, drug-related, Grade 3 (patients) ([7]; Total (n = 21)): 0
- Swelling face, drug-related, Grade 1 or 2 (patients) ([7]; Total (n = 21)): 1
- Swelling face, drug-related, Grade 3 (patients) ([7]; Total (n = 21)): 0
- Vomiting, drug-related, Grade 1 or 2 (patients) ([7]; Total (n = 21)): 3
- Vomiting, drug-related, Grade 3 (patients) ([7]; Total (n = 21)): 0
- Pyrexia, drug-related, Grade 3 (patients) ([7]; Total (n = 21), Dose Limiting Toxicity (DLT)): 1 (4.8%)
- Dose limiting toxicity (DLT) ([7]; at 4 mg/kg, doses up to 30 mg/kg): A single dose limiting toxicity (DLT) of Grade 3 pyrexia
- Grade 3 toxicity of abdominal pain ([7]; at 20 mg/kg): One
- Most commonly reported adverse event ([7]; dose-escalation): fatigue (Grade 1, 2)
- Drug-related Grade 4 toxicities ([7]; dose-escalation, 1-30 mg/kg): No drug-related Grade 4 toxicities
- Safety and tolerability as a single agent ([7]; doses up to 30 mg/kg, every 3 weeks): safe and generally well tolerated
- Progressive disease (patients) ([8]; 21 patients, dose escalation stage): Three
- Response of patient 11009 ([8]; gastric adenocarcinoma with metastatic liver lesion, CT Jun. 13, 2008, confirmed July 2008): complete response
- Complete, objective response (patients) ([8]; gastric cancer patient, 20 mg/kg cohort): one
